We go through 1 substance from paper PMC6444592, “Citrullination of HP1γ chromodomain affects association with chromatin” (Epigenetics & Chromatin, 2019).

The experiment addresses H3K9me3(1–16) peptide.

As to “GST-HP1γWT (recombinant full-length mouse heterochromatin protein 1 gamma, wild type) (from UniProt P23198 1-183) (natural protein)”, the HP1γ citrullination by PADI4 in the in vitro citrullination assay with added H3K9me3 peptides (immunoblot with anti-peptidyl-citrulline antibody; fold change against unmethylated H3 peptide) stood at 2 fold.
